Data set [1] is described as follows: Luminescence of 9B8 opt+K33N derived variants in E. coli. The data set is classed as biochemical. The method, then:
Luminescence generated from the lysates was measured using the novel PBI-3939 and native coelenterazine as substrates. The relative specificity of the variants for PBI-3939 and native coelenterazine was calculated as described previously.
A new OgLuc library was created using 9B8opt+K33N as a starting template. The random library was created using DIVERSIFY® PCR Random Mutagenesis Kit (ClonTech; Catalog #630703). Condition 5 (as listed in the user manual) was used to generate additional variants, and the average mutation rate was calculated to be 2.6 mutations per gene by compiling sequence data from 83 randomly selected clones. This PCR library was cloned into the pF4Ag-based, non-fusion vector background described previously and the sandwich background, i.e., Id-OgLuc-HT7 (described in Example 45). Variants in the pF4Ag-base non-fusion vector background are designated with (NF). Variants in the sandwich vector background are designated with (F). In order to clone the PCR product into both vectors, an amino acid, i.e., a glycine, was appended to the variant sequence in pF4Ag, generating a new position 170 in the OgLuc variant (“170G”). The 170G is present in the sandwich construct, but in this case is considered part of the linker between OgLuc and HT7. For each library, 4,400 E. coli clones were assayed as described previously with the following exceptions. […] The assay buffer contained 100 mM MES pH 6.0 instead of HEPES, and 35 mM thiourea. The assay volumes were as follows: 10 μL cells, 40 μL, lysis buffer, and 50 μL, assay buffer.
E. coli lysates containing the variants were prepared and analyzed as described previously. Luminescence generated from the lysates was measured using the novel PBI-3939 and native coelenterazine as substrates. The luminescence of the variants was normalized to the luminescence generated by 9B8 opt (Table 12). The relative specificity of the variants for PBI-3939 and native coelenterazine was calculated by dividing the luminescence of the variants using PBI-3939 as a substrate with the luminescence of the variants using native coelenterazine as a substrate (Table 12).

The nature of data set [2]: Stability of secreted OgLuc variants in saved media. The data set is classed as physicochemical. The following applies: secreted variant in saved media. As for the experimental part:
To determine if the secretion signal sequence of OgLuc facilitates its secretion, the OgLuc variants 9B8, V2 and L27V were cloned into pF4Ag containing an N-terminal OgLuc secretion signal sequence. The variants were also cloned into vectors without the secretion signal sequence. CHO or HeLa cells were then plates at 100,000 cells/well in 1 mL F12 media with 10% FBS and 1× sodium pyruvate (CHO cells) or DMEM with 10% FBS and 1× sodium pyruvate (HeLa cells) into 12-well plates and incubated overnight at 37° C., 5% CO2.
After the overnight incubation, the cells were transfected with 1 μg plasmid DNA containing 9B8, V2, or L27V with or without the secretion signal sequence using the TRANSIT®-LT1 transfection reagent (Mirus Bio) and OPTI-MEMO media (Invitrogen). The cells were again incubated overnight at 37° C., 5% CO2.
After the second overnight incubation, the media was removed and saved for analysis. […] To 10 μL of cell lysate or saved media from each sample, 50 μL assay buffer with 40 μM PBI-3939 was added, and luminescence measured as described above.
To determine the stability of the secreted variants, 150 μL aliquots of the saved media from each sample was placed at 37° C. or 50° C. The aliquots were then removed at different time points (0, 1, 2, 3, 5, 6, and 7 […]), frozen on dry ice, and kept at −20° C. until assayed. To assay for stability, the media aliquots were thawed to room temperature, and 10 μL of each aliquot was mixed with assay buffer with PBI-3939 (pH 6.0) as described above. Luminescence was measured as above, and the half-life (t50) determined (Table 34).

Data set [3] addresses T1, caspase-3 (Homo sapiens, UniProt P42574).
T1 sequence (P42574 29-175 limits assumed): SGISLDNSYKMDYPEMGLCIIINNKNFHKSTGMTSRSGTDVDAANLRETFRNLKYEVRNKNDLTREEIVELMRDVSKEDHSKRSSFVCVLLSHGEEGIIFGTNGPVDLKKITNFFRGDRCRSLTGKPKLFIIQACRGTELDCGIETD
T1 sequence (P42574 176-277 limits assumed): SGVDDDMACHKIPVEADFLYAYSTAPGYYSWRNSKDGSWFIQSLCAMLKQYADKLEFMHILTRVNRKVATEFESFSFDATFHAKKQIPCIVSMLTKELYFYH
Nature of the data set: Bioluminescent caspase-3 assay with L27V variant. Conditions: luminescence, 3 hrs room temperature. The data set is classed as biochemical. As for the experimental part:
(§1) 2. The L27V variant was used in a bioluminescent assay using a pro-coelenterazine substrate comprising the DEVD caspase-3 cleavage sequence. Purified caspase-3 enzyme (1 mg/mL) in 100 mM MES pH 6 (50 μL) was mixed with 227 nM L27V02 variant and 47 μM PBI-3741 (z-DEVD-coelenterazine-h) in assay buffer (50 μL). Reactions were incubated for 3 hrs at room temperature, and luminescence detected as previously described. The assay with the L27V variant was compared to a firefly luciferase version of the assay, CASPASE-GLO® 3/7-Assay system (Caspase-Glo; Promega Corp.).

For data set [4], the system named is caspase-3. Nature of the data set: Bioluminescent caspase-3 assay with L27V variant. It counts as biochemical. The following applies: luminescence, 3 hrs room temperature. The method, then: as §1
A short description of data set [5]: Km of L27V reversion variants, PBI-3939. It counts as biochemical. As for the experimental part:
Relative activities <1 indicate the reversion is detrimental compared to the residue at that site in the L27V variant. Relative activities >1 indicate the reversion is favorable for activity compared to the residue at that site in the L27V variant. Some additional data on these mutants indicated the following: 166K, 54F, 54A and L27V were tested for thermal stability. The T1/2 60° C. for 166K, 54F, and 54A were 87, 74, and 33%, respectively, indicating these substitutions cause a reduction in thermal stability. […] This indicates higher substrate affinity for L27V, particularly for the position 54 substitutions.

B1: L27V: 9B8 opt+K33N variant with L27V, T39T, K43R, Y68D (SEQ ID NO: 89) (protein)
chain: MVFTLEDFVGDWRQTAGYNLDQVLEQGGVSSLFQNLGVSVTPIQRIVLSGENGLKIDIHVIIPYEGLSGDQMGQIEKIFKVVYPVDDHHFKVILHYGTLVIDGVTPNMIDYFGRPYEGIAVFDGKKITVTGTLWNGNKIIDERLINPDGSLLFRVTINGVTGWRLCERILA
The Km is the substrate concentration at which the rate is half of its maximum. In data set [1] (luminescence with PBI-3939 divided by luminescence with native coelenterazine, bacterial lysates), B1 displayed a Fold over coelenterazine of 110. Besides, the “Fold over 9B8” value in data set [1] (luminescence with PBI-3939 normalized to 9B8 opt, bacterial lysates) is listed as 1.8. The “Fold over Native Coelenterazine, E. coli” value in data set [1] (relative specificity for PBI-3939 compared to native coelenterazine) is 85.2. Further, in data set [2], the “½ life 37 C.” value was 17 days and the “½ life 50 C.” value is 11 h. In addition, the “(+) caspase” value with caspase-3 [3] is 11,532. Moreover, in the data set on caspase-3 [4], the “(−) caspase” value came to 803. In data set [5], the Km turned out to be 18 µM.

The values above are taken from patent US9951373B2, “Oplophorus-derived luciferases, novel coelenterazine substrates, and methods of use” (Promega Corporation, priority 2010, dated 2018).
